Test results reported in article PMC11569188 (2024).

Biological target: Grb2 SH2 domain (BAP-tagged) (UniProt P62993 60-152, biotin on the BAP tag (in vivo biotinylation))
Assay: FP

Chain of Grb2 SH2 domain (BAP-tagged) (P62993 60-152): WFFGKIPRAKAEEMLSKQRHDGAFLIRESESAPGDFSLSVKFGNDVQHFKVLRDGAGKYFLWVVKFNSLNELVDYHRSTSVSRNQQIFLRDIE

IC50: 770 nM
B1: Affimer Grb2 A4 (designed binder)
chain: MASNSLEIEELARFAVDEHNKKENALLEFVRVVKAKEQHVLWENAGPTMYYLTLEAKDGGKKKLYEAKVWVKHTRYEYFVYNFKELQEFKPVGDAAAAHHHHHHHH
